From patent US20230340146A1 (US Dept. of Health and Human Services, published 2023)

How the values were obtained:
[1] = target: T1, human GPC1 on cells (T3M4, KLM1, H8, 2B9) (human) (UniProt P35052); assay: flow cytometry on T3M4 pancreatic cancer cells, non-specific control IgG, goat anti-mouse IgG-PE
T1 sequence (looked up): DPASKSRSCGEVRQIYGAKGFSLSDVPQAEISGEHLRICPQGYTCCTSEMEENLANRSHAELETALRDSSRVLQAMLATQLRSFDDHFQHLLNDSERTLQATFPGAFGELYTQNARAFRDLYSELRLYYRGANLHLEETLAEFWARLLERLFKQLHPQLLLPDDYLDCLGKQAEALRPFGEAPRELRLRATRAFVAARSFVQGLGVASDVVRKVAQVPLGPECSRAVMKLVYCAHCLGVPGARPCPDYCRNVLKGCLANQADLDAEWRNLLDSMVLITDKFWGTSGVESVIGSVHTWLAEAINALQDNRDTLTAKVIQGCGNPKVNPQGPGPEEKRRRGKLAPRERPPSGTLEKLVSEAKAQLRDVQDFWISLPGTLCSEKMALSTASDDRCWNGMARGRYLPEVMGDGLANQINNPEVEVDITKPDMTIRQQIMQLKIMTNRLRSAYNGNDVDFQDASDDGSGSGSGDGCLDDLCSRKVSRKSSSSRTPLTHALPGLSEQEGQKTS

human glypican-2 (GPC2) [2] = target: T2, human glypican-2 (GPC2) (human, UniProt Q8N158 24-554, limits assumed); assay: ELISA on plate-coated human glypicans, goat anti-mouse IgG-HRP
T2 construct: Named through 'human GPC1 through GPC6' in the methods; also called human GPC2; other human glypican members
T2 sequence (looked up): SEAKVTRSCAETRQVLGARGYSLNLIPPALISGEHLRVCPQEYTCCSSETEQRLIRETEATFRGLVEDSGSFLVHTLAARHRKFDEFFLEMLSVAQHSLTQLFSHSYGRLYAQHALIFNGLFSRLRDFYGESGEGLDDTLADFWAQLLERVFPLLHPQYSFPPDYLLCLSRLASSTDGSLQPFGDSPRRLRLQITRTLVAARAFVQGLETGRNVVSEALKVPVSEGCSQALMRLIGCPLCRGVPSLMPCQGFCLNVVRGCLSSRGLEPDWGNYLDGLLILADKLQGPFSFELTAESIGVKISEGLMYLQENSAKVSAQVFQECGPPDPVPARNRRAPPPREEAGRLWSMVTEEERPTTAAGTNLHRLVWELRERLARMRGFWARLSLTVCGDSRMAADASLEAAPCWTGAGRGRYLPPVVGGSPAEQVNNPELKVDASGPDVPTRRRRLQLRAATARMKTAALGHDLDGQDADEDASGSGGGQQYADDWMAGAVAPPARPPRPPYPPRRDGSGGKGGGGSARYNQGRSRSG

human glypican-3 (GPC3) [3] = target: T3, human glypican-3 (GPC3) (human, UniProt P51654 25-559, limits assumed); assay: as above
T3 construct: Named through 'human GPC1 through GPC6' in the methods; also called human GPC3; other human glypican members

human glypican-6 (GPC6) [4] = target: T4, human glypican-6 (GPC6) (human, UniProt Q9Y625 24-529, limits assumed); assay: as above
T4 construct: Named through 'human GPC1 through GPC6' in the methods; also called human GPC6; other human glypican members
T4 sequence (looked up): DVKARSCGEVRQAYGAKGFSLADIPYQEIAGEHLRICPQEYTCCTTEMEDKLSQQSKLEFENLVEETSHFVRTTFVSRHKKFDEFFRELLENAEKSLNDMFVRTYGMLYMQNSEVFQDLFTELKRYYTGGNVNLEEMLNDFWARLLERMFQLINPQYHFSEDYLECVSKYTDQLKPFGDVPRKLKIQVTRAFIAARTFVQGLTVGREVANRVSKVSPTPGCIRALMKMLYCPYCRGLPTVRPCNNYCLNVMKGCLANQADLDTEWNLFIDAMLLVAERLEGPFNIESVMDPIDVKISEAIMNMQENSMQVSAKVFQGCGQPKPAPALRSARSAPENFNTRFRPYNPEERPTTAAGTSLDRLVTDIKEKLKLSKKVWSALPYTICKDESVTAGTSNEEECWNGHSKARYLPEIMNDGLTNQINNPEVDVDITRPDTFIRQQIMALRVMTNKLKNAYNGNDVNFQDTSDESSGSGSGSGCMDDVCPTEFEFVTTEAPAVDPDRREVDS

human glypican-5 (GPC5) [5] = target: T5, human glypican-5 (GPC5) (human, UniProt P78333 25-551, limits assumed); assay: as above
T5 construct: Named through 'human GPC1 through GPC6' in the methods; also called human GPC5; other human glypican members
T5 sequence (looked up): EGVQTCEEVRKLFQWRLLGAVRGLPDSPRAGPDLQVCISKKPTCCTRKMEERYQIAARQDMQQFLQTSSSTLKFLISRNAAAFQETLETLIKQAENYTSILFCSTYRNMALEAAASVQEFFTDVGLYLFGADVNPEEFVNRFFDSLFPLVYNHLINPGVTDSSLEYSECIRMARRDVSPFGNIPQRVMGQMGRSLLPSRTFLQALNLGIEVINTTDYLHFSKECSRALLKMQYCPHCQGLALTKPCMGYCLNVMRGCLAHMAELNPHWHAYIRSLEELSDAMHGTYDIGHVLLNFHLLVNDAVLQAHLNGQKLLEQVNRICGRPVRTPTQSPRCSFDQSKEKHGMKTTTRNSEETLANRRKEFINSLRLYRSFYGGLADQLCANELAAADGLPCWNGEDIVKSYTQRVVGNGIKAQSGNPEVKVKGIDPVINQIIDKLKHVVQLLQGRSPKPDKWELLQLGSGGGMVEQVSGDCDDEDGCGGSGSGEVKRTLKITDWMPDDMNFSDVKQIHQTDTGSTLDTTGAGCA

His-tagged GPC1 protein = target: T6, His-tagged GPC1 protein (human, UniProt P35052 24-530, limits assumed); assay: Octet (BLI), His-tagged GPC1 on Ni-NTA biosensor, HM2 in solution
T6 construct: Immobilised on a Ni-NTA biosensor for the Octet measurement of HM2; also called human GPC1; not shown: His tag
T6 sequence (looked up): T1 sequence (looked up)
Description: (§1) Data analysis was performed using the FortéBio analysis software.

human glypican-4 (GPC4) [6] = target: T7, human glypican-4 (GPC4) (human, UniProt O75487 19-529, limits assumed); assay: ELISA, plate coated with human GPC4
T7 construct: Named through 'human GPC1 through GPC6' in the methods; also called human GPC4; other human glypican members
T7 sequence (looked up): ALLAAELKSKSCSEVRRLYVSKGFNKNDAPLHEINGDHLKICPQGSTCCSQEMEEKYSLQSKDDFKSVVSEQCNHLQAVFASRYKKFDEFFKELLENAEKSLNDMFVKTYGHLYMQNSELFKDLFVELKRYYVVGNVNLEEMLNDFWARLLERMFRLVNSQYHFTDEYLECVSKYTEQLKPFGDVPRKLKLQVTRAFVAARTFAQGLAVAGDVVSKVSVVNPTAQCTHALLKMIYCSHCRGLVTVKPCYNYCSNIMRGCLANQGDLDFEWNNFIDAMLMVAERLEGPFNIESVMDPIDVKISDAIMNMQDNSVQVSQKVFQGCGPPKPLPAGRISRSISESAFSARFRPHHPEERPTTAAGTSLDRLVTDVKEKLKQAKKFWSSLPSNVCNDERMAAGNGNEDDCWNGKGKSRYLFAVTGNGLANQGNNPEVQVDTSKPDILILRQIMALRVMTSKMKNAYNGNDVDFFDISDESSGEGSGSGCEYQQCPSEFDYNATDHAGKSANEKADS
Description: (§2) Mouse hybridoma supernatant containing 1 µg/ml of each mAb was incubated with plates coated with human GPC1 through GPC6 purchased from R&D Systems. Binding was detected with a goat anti-mouse IgG conjugated with horseradish peroxidase (HRP) (Jackson ImmunoResearch). […] Binding was detected with an anti-FLAG HRP-conjugated antibody (Sigma-Aldrich). […] Recombinant human GPC1-hFc protein at concentrations of 5 µg/ml and 1 µg/ml were then added to the plate.

GPC1 peptide 53 = target: T8, GPC1 peptide 53; assay: ELISA on peptides of the GPC1 peptide library
T8 peptide: DGCLDDLCSRKVSRKSSS

[7] = target: T1, human GPC1 on cells (T3M4, KLM1, H8, 2B9) (human); assay: cell-based or functional assay
mouse GPC1 protein = target: T9, mouse GPC1 protein (mouse, UniProt Q9QZF2 24-529, limits assumed); assay: monoclonal phage ELISA on plate-coated mouse GPC1
T9 sequence (looked up): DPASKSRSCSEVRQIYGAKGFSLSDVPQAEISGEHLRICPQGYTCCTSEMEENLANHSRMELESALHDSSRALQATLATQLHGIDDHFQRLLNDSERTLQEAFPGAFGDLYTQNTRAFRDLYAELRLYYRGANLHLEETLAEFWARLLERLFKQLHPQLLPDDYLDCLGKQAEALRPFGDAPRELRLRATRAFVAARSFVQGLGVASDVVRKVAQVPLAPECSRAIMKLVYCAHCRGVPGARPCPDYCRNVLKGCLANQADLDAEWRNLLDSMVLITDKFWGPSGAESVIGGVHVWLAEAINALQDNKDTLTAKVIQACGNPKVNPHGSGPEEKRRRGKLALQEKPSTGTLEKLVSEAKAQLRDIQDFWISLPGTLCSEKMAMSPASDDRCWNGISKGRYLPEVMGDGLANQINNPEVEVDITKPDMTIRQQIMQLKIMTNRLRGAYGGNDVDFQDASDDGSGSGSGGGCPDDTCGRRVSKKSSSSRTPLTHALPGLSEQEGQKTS

human glypican-4 (GPC4) [8] = target: T7, human glypican-4 (GPC4); assay: ELISA on human GPC4, anti-FLAG detection
Description: as §2

[9] = target: T10, recombinant human GPC1-hFc protein (human, UniProt P35052 24-530, limits assumed); assay: Octet (BLI), His-tagged D4 on Ni-NTA biosensor, serially diluted human GPC1-hFc in solution
T10 construct: Analyte in the Octet measurement of D4; not shown: human Fc (hFc)
T10 sequence (looked up): T1 sequence (looked up)
Description: as §1

GPC1 peptide 14 = target: T11, GPC1 peptide 14; assay: ELISA on peptides of the GPC1 peptide library
T11 peptide: FRDLYSELRLYYRGANLH

GPC1 peptide 15 = target: T12, GPC1 peptide 15; assay: ELISA on peptides of the GPC1 peptide library
T12 peptide: LYYRGANLHLEETLAEFW

human glypican-2 (GPC2) [10] = target: T2, human glypican-2 (GPC2); assay: monoclonal phage ELISA on plate-coated glypicans
human glypican-3 (GPC3) [11] = target: T3, human glypican-3 (GPC3); assay: monoclonal phage ELISA on plate-coated glypicans
human glypican-6 (GPC6) [12] = target: T4, human glypican-6 (GPC6); assay: monoclonal phage ELISA on plate-coated glypicans
human glypican-5 (GPC5) [13] = target: T5, human glypican-5 (GPC5); assay: monoclonal phage ELISA on plate-coated glypicans

Molecule: Neg ctrl (antibody)
- MFI [1]: 7

B1: HM2 mouse monoclonal antibody (antibody, V domains shown)
VH: EVQLQQSGAELVRPGASVKLSCTASGFNIKDDYMHWVKQRPEQGLEWIGWIDPENGDTEYASKFQGKATITADTSSNTAYLQLSSLTSEDTAVYYCTRSSVGYWGQGTTLTVSS
VL: DVVMTQTPLSLPVSLGDQASISCRSSQSLVHSNGNTYLHWYLQKPGQSPKLLIYKVSNRFSGVPDRFSGSGSGTYFTLKISRVEAEDLGVYFCSQRTHVPYTFGGGTKLEIK
notes: Mouse monoclonal antibody (detected with goat anti-mouse IgG); also called HM2 mAb; HM2 clone
- binding result (human glypican-2 (GPC2) [2]): no binding (tested: 1 µg/ml)
- binding result (human glypican-3 (GPC3) [3]): no binding (tested: 1 µg/ml)
- binding result (human glypican-6 (GPC6) [4]): no binding (tested: 1 µg/ml)
- binding result (human glypican-5 (GPC5) [5]): no binding (tested: 1 µg/ml)
- Kd (His-tagged GPC1 protein): 0.4 nM
- binding result (human glypican-4 (GPC4) [6]): no binding (tested: 1 µg/ml)
- binding result (GPC1 peptide 53): binds

B2: D4-IgG4 hinge-CD28 TM CAR (protein)
chain: HMQVQLVESGGGLVQPGGSLRLSCVASGYSYSIGYMAWFRQAPGKERAWVASRYTGDGGAVFDDAVKGRFTTSQESAGNTFDLQMDSLKPEDTAMYYCAAKGPGFGRWEYWGRGTQVTVSSTSESKYGPPCPPCPFWVLVVVGGVLACYSLLVTVAFIIFWVKRGRKKLLYIFKQPFMRPVQTTQEEDGCSCRFPEEEEGGCELRVKFSRSADAPAYQQGQNQLYNELNLGRREEYDVLDKRRGRDPEMGGKPRRKNPQEGLYNELQKDKMAEAYSEIGMKGERRRGKGHDGLYQGLSTATKDTYDALHMQALPPR
- cytolytic activity against T3M4 cells, difference to D4-IgG4 hinge-CD8 TM CAR T cells [7]: 10%
- killing ability at high E:T ratio [7]: 91.6%

B3: D4 camel single-domain antibody (VHH)
VHH: QVQLVESGGGLVQPGGSLRLSCVASGYSYSIGYMAWFRQAPGKERAWVASRYTGDGGAVFDDAVKGRFTTSQESAGNTFDLQMDSLKPEDTAMYYCAAKGPGFGRWEYWGRGTQVTVSS
notes: the methods describe D4 at 1 ug/ml detected with anti-FLAG; also called D4 antibody; D4 clone; not shown: FLAG and His tags (detected with anti-FLAG; 'His-tagged D4')
- binding result (mouse GPC1 protein): binds
- binding result (human glypican-4 (GPC4) [8]): no binding (tested: 1 µg/ml)
- Kd [9]: 0.7 nM
- binding result (GPC1 peptide 14): binds
- binding result (GPC1 peptide 15): binds
- binding result (human glypican-2 (GPC2) [10]): no binding (tested: 1 µg/ml (per paragraph 203; not on the sheet))
- binding result (human glypican-3 (GPC3) [11]): no binding (tested: 1 µg/ml (per paragraph 203; not on the sheet))
- binding result (human glypican-6 (GPC6) [12]): no binding (tested: 1 µg/ml (per paragraph 203; not on the sheet))
- binding result (human glypican-5 (GPC5) [13]): no binding (tested: 1 µg/ml (per paragraph 203; not on the sheet))
